Results: US20050148504A1, “Cysteine protease inhibitor” (priority 2002, published 2005)

Tests used:
papain [1] = molecular target: papain (UniProt P00784); assay: cell-based or functional assay
papain [2] = molecular target: T1, papain (Carica papaya, UniProt P00784); assay: cysteine protease inhibitory activity, Z-Phe-Arg-MCA fluorescence method (Barrett et al.), papain; type: biochemical; set-up: purchased Sigma Co., Ltd
T1 sequence (P00784 134-345): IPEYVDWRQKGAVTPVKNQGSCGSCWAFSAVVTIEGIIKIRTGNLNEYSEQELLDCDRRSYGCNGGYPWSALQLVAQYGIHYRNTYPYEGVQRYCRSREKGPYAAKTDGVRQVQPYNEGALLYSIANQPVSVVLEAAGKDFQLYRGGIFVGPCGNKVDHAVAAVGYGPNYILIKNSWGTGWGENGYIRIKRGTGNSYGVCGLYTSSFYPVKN
Method: Casein, a partial peptide of casein, or hydrolysate of casein which can be used for the present invention has inhibitory activity against cysteine proteases such as cathepsin B, L and papain. The cysteine protease inhibitory activity can be determined in accordance with the methods of Barrett et al (Methods in Enzymology, Vol. 80, pp. 535-561, 1981). For example, Z-Phe-Arg-MCA (Benzyloxycarbonyl-L-Phenylalanyl-L-Arginine4-Methyl-Coumaryl-7-Amide: final concentration of […]: manufactured by Peptide Institute, Inc.) is added as a substrate into a solution in which casein, a partial peptide and/or a hydrolysate of casein is dissolved in 0.1 M acetic acid buffer (pH 5.5), and then a cysteine protease (papain in the present Examples: manufactured by Sigma Co., Ltd.) solution (final concentration: 15 units/ml) is added and the whole solution is mixed to allow reaction at 37° C. for 10 minutes. After that, fluorescence intensity (excitation wavelength: 370 nm, emission wavelength: 460 nm) of AMC (7-Amino-4-Methyl-Coumarin) released from the digested substrate is measured with a fluorescence spectrometer (manufactured by Hitachi, Ltd.).
(§1) The inhibitory activity was measured with reference to the method by Barrett et al. (“Methods in Enzymology,” Vol. 80, p 535-561, 1981) as described below. Namely, Z-Phe-Arg-MCA (final concentration of […]: manufactured by Peptide Institute, Inc.) was added as a substrate to a solution containing bovine β-casein peptide mixture dissolved in a 0.1 M acetic acid buffer solution pH 5.5. Then, a cysteine protease (papain in the present test: manufactured by Sigma Co., Ltd.) solution (final concentration: 15 units/ml) was added, the whole solution was mixed and the reaction was carried out at 37° C. for 10 minutes. Subsequently, fluorescence intensity (excitation wavelength: 370 nm, emission wavelength: 460 nm) of AMC released from the digested substrate was measured with a fluorescence spectrometer (manufactured by Hitachi, Ltd.).
Z-Phe-Arg-MCA (final concentration of […]: manufactured by Peptide Institute, Inc.) was added as a substrate into a solution in which a test sample was dissolved in a 0.1 M acetic acid buffer (pH 5.5). Then, a papain solution (final concentration of 15 units/ml) as a cysteine protease solution was added and mixed, and the reaction was performed at 37° C. for 10 minutes. Subsequently, fluorescence intensity (excitation wavelength: 370 nm, emission wavelength: 460 nm) of AMC released from the digested substrate was measured with a fluorescence spectrometer (manufactured by Hitachi, Ltd.).

cathepsin L = cathepsin L (Homo sapiens, UniProt P07711); assay: cysteine protease inhibitory activity, Z-Phe-Arg-MCA fluorescence method, cathepsin L; type: biochemical; conditions: concentration of 10^−4 M
cathepsin L, sequence (P07711 114-333, species assumed): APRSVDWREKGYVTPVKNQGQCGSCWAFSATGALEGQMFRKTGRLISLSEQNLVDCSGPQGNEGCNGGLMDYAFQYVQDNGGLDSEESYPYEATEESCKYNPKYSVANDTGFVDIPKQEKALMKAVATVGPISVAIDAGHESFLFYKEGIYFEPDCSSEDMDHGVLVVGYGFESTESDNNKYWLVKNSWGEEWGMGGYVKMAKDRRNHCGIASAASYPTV
Method: as §1
(§2) A spectrum of cysteine protease-inhibitory activity of a test sample was measured in the same way as that of measuring the cysteine protease-inhibitory activity described in the Test Example 3, using bovine β-casein as a test sample, and papain, cathepsin B and cathepsin L as cysteine proteases.

papain [3] = molecular target: T1, papain; assay: reverse zymography using papain (SDS-polyacrylamide gel containing gelatin); conditions: 12.5% SDS-polyacrylamide gel with 0.1% gelatin; papain 37° C. 10 hours; FIG. 1 lane 6
cathepsin B = cathepsin B (Homo sapiens, UniProt P07858); assay: cysteine protease inhibitory activity, Z-Phe-Arg-MCA fluorescence method, cathepsin B; type: biochemical; conditions: concentration of 10^−4 M
Method: as §1, §2

bovine α-casein
concentration at which papain activity is almost inhibited (papain [1]): 100 µM

bovine β-casein peptide: peptide from Leu of 142th residue to His of 160th residue of bovine β-casein (SEQ ID No. 2) (LTDVENLHLPLPLLQSWMH; sig_peptide (1)Oc(15) casein; listed as Bos taurus)
cysteine protease inhibitory activity (papain), in words (papain [2]; papain 15 units/ml, pH 5.5, 37° C. 10 minutes, concentration not given): having inhibitory activity

bovine κ-casein (from UniProt P02668 22-190)
concentration at which papain is completely inhibited (papain [1]): 10 µM

bovine κ-casein: bovine κ-casein used as a test sample
inhibition of papain, in words (papain [2]; concentration of 10^−5 M): completely inhibit

human β-casein peptide: synthesized peptide having amino acid numbers 133 to 151 of SEQ ID No. 1 (human β-casein) (LTDLENLHLPLPLLQPLMQ; sig_peptide (1)Oc(15) casein; listed as Homo Sapiens)
inhibition of papain, in words (papain [2]; concentration of 10^−4 M): completely inhibits | inhibition of protease activity of papain (papain [2]; concentration of 10^−5 M): 65%

B1: bovine β-casein: β-casein derived from bovine, amino acid sequence of SEQ ID No. 2 (Swiss-Prot P02666) (protein, listed as Bos taurus)
chain: MKVLILACLVALALARELEELNVPGEIVESLSSSEESITRINKKIEKFQSEEQQQTEDELQDKIHPFAQTQSLVYPFPGPIPNSLPQNIPPLTQTPVVVPPFLQPEVMGVSKVKEAMAPKHKEMPFPKYPVEPFTESQSLTLTDVENLHLPLPLLQSWMHQPHQPLPPTVMFPPQSVLSLSQSKVLPVPQKAVPYPQRDMPIQAFLLYQEPVLGPVRGPFPIIV
modifications: sig_peptide (1)Oc(15) casein
inhibition of papain, in words (papain [2]; concentration of 10^−5 M): completely inhibits | inhibition of papain, in words (papain [2]; concentration of 10^−5 M, listed as β-casein): completely inhibit | inhibition of protease activity of cathepsin L, in words (cathepsin L): almost inhibits | band in reverse zymography using papain (papain [3]): positive band | inhibition of protease activity of cathepsin B, in words (cathepsin B): almost inhibits

B2: human β-casein: human β-casein purified by a conventional procedure, amino acid sequence of SEQ ID No. 1 (Swiss-Prot P05814) (protein, listed as Homo Sapiens)
chain: MKVLILACLVALALARETIESLSSSEESITEYKQKVEKVKHEDQQQGEDEHQDKIYPSFQPQPLIYPFVEPIPYGFLPQNILPLAQPAVVLPVPQPEIMEVPKAKDTVYTKGRVMPVLKSPTIPFFDPQIPKLTDLENLHLPLPLLQPLMQQVPQPIPQTLALPPQPLWSVPQPKVLPIPQQVVPYPQRAVPVQALLLNQELLLNPTHQIYPVTQPLAPVHNPISV
modifications: sig_peptide (1)Oc(15) casein
inhibition of papain, in words (papain [2]; concentration of 10^−5 M): almost completely inhibits
